B1: VAMP7(119–180) (domain or fragment, human, UniProt P51809 119-180, looked up)
chain: ENKGLDKVMETQAQVDELKGIMVRNIDLVAQRGERLELLIDKTENLVDSSVTFKTTSRNLAR
B2: VAMP7(1–118) (domain or fragment, human, UniProt P51809 1-118, looked up)
chain: MAILFAVVARGTTILAKHAWCGGNFLEVTEQILAKIPSENNKLTYSHGNYLFHYICQDRIVYLCITDDDFERSRAFNFLNEIKKRFQTTYGSRAQTALPYAMNSEFSSVLAAQLKHHS

The target in the data set “VAMP7(1–118)” is B2. The data set is described as follows: NMR titration.
The data set “SEC-MALS” concerns the molecule itself. The data set is described as follows: SEC-MALS. A general note: In gel filtration, larger molecules generally elute earlier.

As for B1, in the data set with VAMP7(1–118), the binding result is listed as “binds”.

One may read the stoichiometry N as a count of units in the complex or per binding partner. Consider B2, for which the “stoichiometry N” value in “SEC-MALS” was determined as 2.

These data come from article PMC2878558 (The Journal of Biological Chemistry, 2010).
